Where two headings read alike, the source gives them in different places. Each block holds one binder with its values, some of them ahead of it.
Experiments:
[1] = molecular target: T1, endosome associated trafficking regulator 1, transcript variant 2 (human, UniProt Q96C92 59-435); assay: protein array
T1 construct: on protein array; also called SDCCAG3
T1 chain: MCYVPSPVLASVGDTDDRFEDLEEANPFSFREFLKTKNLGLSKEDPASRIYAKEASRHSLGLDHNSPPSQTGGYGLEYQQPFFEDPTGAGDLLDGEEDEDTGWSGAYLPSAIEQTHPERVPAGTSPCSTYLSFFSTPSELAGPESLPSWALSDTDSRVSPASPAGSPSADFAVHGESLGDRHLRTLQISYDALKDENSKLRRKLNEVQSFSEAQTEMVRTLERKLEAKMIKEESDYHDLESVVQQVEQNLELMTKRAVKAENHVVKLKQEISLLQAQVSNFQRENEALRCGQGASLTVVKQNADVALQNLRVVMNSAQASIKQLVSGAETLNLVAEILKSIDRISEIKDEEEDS

[2] = molecular target: T2, endosome associated trafficking regulator 1, transcript variant 2 (human, UniProt Q96C92 59-435)
T2 construct: HuProt array protein, full-length recombinant from yeast; also called SDCCAG3
T2 chain: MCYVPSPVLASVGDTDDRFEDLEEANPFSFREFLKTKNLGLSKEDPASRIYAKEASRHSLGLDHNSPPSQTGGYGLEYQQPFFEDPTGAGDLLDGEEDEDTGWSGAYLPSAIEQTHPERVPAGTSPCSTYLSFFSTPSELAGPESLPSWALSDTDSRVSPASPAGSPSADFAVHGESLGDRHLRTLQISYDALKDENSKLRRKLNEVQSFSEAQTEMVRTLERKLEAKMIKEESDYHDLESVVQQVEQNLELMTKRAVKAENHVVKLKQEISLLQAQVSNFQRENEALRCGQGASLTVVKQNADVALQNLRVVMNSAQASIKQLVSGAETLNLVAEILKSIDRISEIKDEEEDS

[3] = molecular target: T3, DEAD-box helicase 53 (human, UniProt Q86TM3 1-631); assay: protein array
T3 construct: on protein array; also called DDX53
T3 sequence (Q86TM3 other isoform, or with tags, fused parts or gaps limits assumed): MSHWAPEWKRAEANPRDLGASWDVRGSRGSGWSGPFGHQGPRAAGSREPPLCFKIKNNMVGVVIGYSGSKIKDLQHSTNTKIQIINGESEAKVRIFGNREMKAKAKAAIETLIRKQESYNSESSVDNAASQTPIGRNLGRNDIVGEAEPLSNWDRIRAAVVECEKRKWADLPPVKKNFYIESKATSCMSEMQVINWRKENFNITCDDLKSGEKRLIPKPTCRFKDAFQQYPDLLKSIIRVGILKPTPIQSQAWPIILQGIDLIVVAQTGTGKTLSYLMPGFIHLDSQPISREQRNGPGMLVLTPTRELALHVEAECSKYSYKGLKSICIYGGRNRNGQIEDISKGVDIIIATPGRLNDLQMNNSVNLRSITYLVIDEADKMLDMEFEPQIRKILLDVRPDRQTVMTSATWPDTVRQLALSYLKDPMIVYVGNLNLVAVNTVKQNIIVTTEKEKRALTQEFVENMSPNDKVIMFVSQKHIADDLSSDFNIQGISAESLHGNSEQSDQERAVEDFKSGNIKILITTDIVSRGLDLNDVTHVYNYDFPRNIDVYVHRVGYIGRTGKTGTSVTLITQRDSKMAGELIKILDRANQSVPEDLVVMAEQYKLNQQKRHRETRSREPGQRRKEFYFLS

[4] = molecular target: T4, DEAD-box helicase 53 (human, UniProt Q86TM3 1-631)
T4 construct: also called DDX53
T4 sequence (Q86TM3 other isoform, or with tags, fused parts or gaps limits assumed): as above

[5] = molecular target: T5, PNMA family member 5, transcript variant 2 (human, UniProt Q96PV4 1-448); assay: protein array
T5 construct: on protein array; also called PNMA5
T5 sequence (Q96PV4 other isoform, or with tags, fused parts or gaps mutant limits assumed): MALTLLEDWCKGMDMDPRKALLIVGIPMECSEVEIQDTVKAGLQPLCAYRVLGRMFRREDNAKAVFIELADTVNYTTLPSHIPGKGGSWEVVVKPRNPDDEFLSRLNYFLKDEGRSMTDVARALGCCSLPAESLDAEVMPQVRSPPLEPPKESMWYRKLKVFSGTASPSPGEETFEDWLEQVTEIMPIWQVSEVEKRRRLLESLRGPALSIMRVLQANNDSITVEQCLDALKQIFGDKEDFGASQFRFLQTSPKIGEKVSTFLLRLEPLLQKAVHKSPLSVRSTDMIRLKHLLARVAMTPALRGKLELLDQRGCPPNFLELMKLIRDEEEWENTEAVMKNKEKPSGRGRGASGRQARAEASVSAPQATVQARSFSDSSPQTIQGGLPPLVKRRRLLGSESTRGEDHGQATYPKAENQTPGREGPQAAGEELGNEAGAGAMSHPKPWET

[6] = molecular target: T6, PNMA family member 5, transcript variant 2 (human, UniProt Q96PV4 1-448)
T6 construct: HuProt array protein, full-length recombinant from yeast; also called PNMA5
T6 sequence (Q96PV4 other isoform, or with tags, fused parts or gaps mutant limits assumed): as above

[7] = molecular target: T7, Jupiter microtubule associated homolog 2 (human, UniProt Q9H910 1-190); assay: protein array
T7 construct: on protein array; also called HN1L
T7 sequence: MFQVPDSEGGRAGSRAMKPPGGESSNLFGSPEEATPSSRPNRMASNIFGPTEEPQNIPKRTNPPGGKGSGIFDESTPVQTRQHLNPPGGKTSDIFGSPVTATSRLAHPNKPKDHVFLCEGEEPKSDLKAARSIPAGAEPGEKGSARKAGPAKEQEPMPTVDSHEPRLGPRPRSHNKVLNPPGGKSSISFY

[8] = molecular target: T8, kelch like ECH associated protein 1, transcript variant 1 (human, UniProt Q14145 1-624)
T8 construct: HuProt array protein, full-length recombinant from yeast; also called KEAP1
T8 sequence (Q14145 whole entry, change not shown): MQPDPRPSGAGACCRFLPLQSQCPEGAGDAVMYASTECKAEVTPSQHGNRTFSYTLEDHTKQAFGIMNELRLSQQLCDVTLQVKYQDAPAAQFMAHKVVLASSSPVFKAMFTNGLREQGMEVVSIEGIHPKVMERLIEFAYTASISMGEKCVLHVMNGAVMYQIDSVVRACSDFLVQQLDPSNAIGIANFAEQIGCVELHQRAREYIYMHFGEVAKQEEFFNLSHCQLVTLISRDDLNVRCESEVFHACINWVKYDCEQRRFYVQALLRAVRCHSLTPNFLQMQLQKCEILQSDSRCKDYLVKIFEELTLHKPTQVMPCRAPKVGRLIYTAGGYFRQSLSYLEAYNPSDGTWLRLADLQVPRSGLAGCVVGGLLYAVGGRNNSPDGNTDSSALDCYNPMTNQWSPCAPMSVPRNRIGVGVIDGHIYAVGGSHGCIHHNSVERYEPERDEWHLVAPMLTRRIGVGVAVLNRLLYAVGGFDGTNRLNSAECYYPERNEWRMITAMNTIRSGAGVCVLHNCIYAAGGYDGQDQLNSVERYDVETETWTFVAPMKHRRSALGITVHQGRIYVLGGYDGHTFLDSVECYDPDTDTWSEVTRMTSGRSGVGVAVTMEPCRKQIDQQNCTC

[9] = molecular target: T9, kelch like ECH associated protein 1, transcript variant 1 (human, UniProt Q14145 1-624); assay: protein array
T9 construct: on protein array; also called KEAP1
T9 sequence (Q14145 whole entry, change not shown): as above

binding result [1]: binds
B1: TMES1001 (antibody, V domains shown)
VH: QVQLVQSGAEVKKPGASVKVSCKASGYTFTSYYMYWVRQAPGQGLEWMGIINPGGGSTSYAQKFQGRVTMTRDTSTSTVYMELSSLRSEDTAVYYCARVFRYGMDVWGQGTTVTVSS
VL: EIVMTQSPATLSVSPGERATLSCRASQSVSSNLAWYQQKPGQAPRLLIYGASTRATGLPARFSGSGSGTEFTLTISSLQSEDFAVYYCQSRGTFGGGTKVEIK
notes: VH/VL tied via antigen in summary, not by name in this stretch

binding result [2]: binds
B2: TMES1001 (antibody, V domains shown)
VH: QVQLVQSGAEVKKPGASVKVSCKASGYTFTSYYMYWVRQAPGQGLEWMGIINPGGGSTSYAQKFQGRVTMTRDTSTSTVYMELSSLRSEDTAVYYCARVFRYGMDVWGQGTTVTVSS
VL: EIVMTQSPATLSVSPGERATLSCRASQSVSSNLAWYQQKPGQAPRLLIYGASTRATGLPARFSGSGSGTEFTLTISSLQSEDFAVYYCQSRGTFGGGTKVEIK
notes: detected with anti-human IgG Fc

binding result [1]: binds
B3: TMEL1025 (antibody, V domains shown)
VH: EVQLMESGGGLVQPGGSLRLSCAASGLTFSIYSMNWVRQAPGKGLEWVSYISRGSSVIYHADSVKGRFTISRDDGKNLLYLQMNSLRDDDTAMYYCSSGGSTSMVGRYWGQGSLVTVSS
VL: DVVMTQSPLYLPVTLGQPASISCRASQSLVYSDGNTYLNWVHQRPGQSPRRLIYMVSQRGSGVPDRFSGSGSDTDFTLKISRVEAEDVGVYYCMQGTHWSAFGQGTKLEIKR
notes: as for B1

binding result [2]: binds
B4: TMEL1025 (antibody, V domains shown)
VH: EVQLMESGGGLVQPGGSLRLSCAASGLTFSIYSMNWVRQAPGKGLEWVSYISRGSSVIYHADSVKGRFTISRDDGKNLLYLQMNSLRDDDTAMYYCSSGGSTSMVGRYWGQGSLVTVSS
VL: DVVMTQSPLYLPVTLGQPASISCRASQSLVYSDGNTYLNWVHQRPGQSPRRLIYMVSQRGSGVPDRFSGSGSDTDFTLKISRVEAEDVGVYYCMQGTHWSAFGQGTKLEIKR
notes: as for B2

binding result [3]: binds
B5: TSAR1004 (antibody, V domains shown)
VH: QVQLQESGPGLVKPSETLSLTCSVSGDSFSDYYWSWTRQSPGKGLEWLGYMFYGGSTNYNPSLKSRLTMSVDTSKKHVYLKLSSVTAADTAVYYCAASGYGDHVAYWGQGTLVTVSS
VL: DIVMTQSPDSLAVSLGERATLNCKSSQSVLSSYNNKDYLAWFQQKPGQPPQLLFYWASTRKTGVPDRFSGSGSGTDFTLTISSLQTEDVAVYYCQQYYSTPYTFGQGTKLEIK
notes: as for B1

binding result [4]: binds
B6: TSAR1004 (antibody, V domains shown)
VH: QVQLQESGPGLVKPSETLSLTCSVSGDSFSDYYWSWTRQSPGKGLEWLGYMFYGGSTNYNPSLKSRLTMSVDTSKKHVYLKLSSVTAADTAVYYCAASGYGDHVAYWGQGTLVTVSS
VL: DIVMTQSPDSLAVSLGERATLNCKSSQSVLSSYNNKDYLAWFQQKPGQPPQLLFYWASTRKTGVPDRFSGSGSGTDFTLTISSLQTEDVAVYYCQQYYSTPYTFGQGTKLEIK

binding result [3]: binds
B7: TOVA1001 (antibody, V domains shown)
VH: HVQLVQSGSELKKPGASVKLSCKASGYTFTNYAMNWVRQAPGQGLEWMGWINTNTGNPTYAQGFTGRFVFSLDTSVSTAYLQISSLKAEDTALYYCARDRPGDYWGQGTLVTVSS
VL: not shown
notes: as for B1

binding result [4]: binds
B8: TOVA1001 (antibody, V domains shown)
VH: HVQLVQSGSELKKPGASVKLSCKASGYTFTNYAMNWVRQAPGQGLEWMGWINTNTGNPTYAQGFTGRFVFSLDTSVSTAYLQISSLKAEDTALYYCARDRPGDYWGQGTLVTVSS
VL: not shown

binding result [5]: binds
B9: TBRE1011 (antibody, V domains shown)
VH: PVLLQESGPGLVKPSETLSLTCTVSGDSMSFYYWTWIRQPPGKGLEWIGYIYYSGNRNYNPSLNSRVTISVDTSKNEVSLKLTSVTAADTAAYYCARGRGEMDVWGQGTTVTVSS
VL: QSVLTQPPSASGTPGQGVTISCSGTSANIGKNYVSWYQHLPGTAPRLLIYRIDQRPSGVPDRFSGSKSGTSASLAISGLRPEDEADYYCAAWDDSLSGPVFGGGTKLTVLG
notes: VH/VL only

binding result [6]: binds
B10: TBRE1011 (antibody, V domains shown)
VH: PVLLQESGPGLVKPSETLSLTCTVSGDSMSFYYWTWIRQPPGKGLEWIGYIYYSGNRNYNPSLNSRVTISVDTSKNEVSLKLTSVTAADTAAYYCARGRGEMDVWGQGTTVTVSS
VL: QSVLTQPPSASGTPGQGVTISCSGTSANIGKNYVSWYQHLPGTAPRLLIYRIDQRPSGVPDRFSGSKSGTSASLAISGLRPEDEADYYCAAWDDSLSGPVFGGGTKLTVLG
notes: as for B2

binding result [7]: binds
B11: TOVA1008 (antibody, V domains shown)
VH: ELQLVESGGGLVQPGGSLRLSCAASGFTFSSYWMSWVRQAPGKGLEWVANINQDGGEKYYVDSVKGRFTISRDNAKNSLYLQMNSLRAEDTAVYYCAHYYYDSSGYYQNAEYFQYWGQGTLVTVSS
VL: DIQMTQSPPSLSASVGDRVTITCQASQDISNYLNWYQQKPGKTPKLLIYAASTLETGVPSRFSGSGSGTDFTFTINSLQPEDIATYYCQQYDSLPLTFGGGTKVEIKR
notes: as for B1

binding result [6]: binds
B12: THNS1009 (antibody, V domains shown)
VH: QVQLQESGPGLVKPSETLSLTCTVSGGSISIYYWSWIRQPPGKGLEWIGYIYYSGSTNYNPSLKSRVTISVDTSKNQFSLKLRSVTAADTAVYYCARDTYGDPRGDYFDYWGQGTLVTVSS
VL: DIQMTQSPSTLSASVGDRVTITCRASQRISNWLAWYQQTPGKAPKLLIYKASSLESGVPSRFSGSGSGTEFTLTISSLQPDDFATYYCQQYSSSSPRTFGQGTKVEIKR
notes: as for B2

binding result [5]: binds
B13: THNS1009 (antibody, V domains shown)
VH: QVQLQESGPGLVKPSETLSLTCTVSGGSISIYYWSWIRQPPGKGLEWIGYIYYSGSTNYNPSLKSRVTISVDTSKNQFSLKLRSVTAADTAVYYCARDTYGDPRGDYFDYWGQGTLVTVSS
VL: DIQMTQSPSTLSASVGDRVTITCRASQRISNWLAWYQQTPGKAPKLLIYKASSLESGVPSRFSGSGSGTEFTLTISSLQPDDFATYYCQQYSSSSPRTFGQGTKVEIKR
notes: VH/VL only

binding result [7]: binds
B14: TTES1011 (antibody, V domains shown)
VH: PVTLRESGPALVKPTQTLTLTCTFSGFSLSTSGMCVSWIRQPPGKALEWLARIDWDDDKYYSTSLKTRLTISKDTSKNQVVLTMTNMDPVDTATYYCARMQIVATTQTYYYYYGMDVWGQGTTVTVSS
VL: PAVLTQPPSVSGAPGQRVTISCTGSSSNIGAGYDVHWYQQLPGTAPKLLIYGNSNRPSGVPDRFSGSKSGTSASLAITGLQAEDEADYYCQSYDSSLSGSGVFGGGTKLTVLG
notes: as for B1

binding result [8]: binds
B15: TCOL1007 (antibody, V domains shown)
VH: PVQLVESGGGVVQPGRSLRLSCAASGFTFSNYGMHWVRQAPGKGLEWVAVISDDGNDKDNADSVKGRFTISRDNSKNTLYLRMNSLRREDTAVYYCARDGFDYWGQGTLVTVSS
VL: DIVMTQTPLSMPVTPGEPASISCRSSQSLLDSDDGKTYLDWYLQKPGQSPQLLIYTVSYRASGVPDRFSGSGSGTDFTLKISRVEAEDVGVYYCMQRIEFPFTFGPGTKVDIKR
notes: as for B2

binding result [8]: binds
B16: TBRE1052 (antibody, V domains shown)
VH: PVQLIQSGAEVRKPGASVKVSCKVSGYTLSELSLHWVRQAPGKGLEWMGTFDPEDGETVYAQKFQGRVTVTEDTSTDTAYIDLSSLKSEDTAVYYCATDGPLHTSGLDYWGQGTLVTVSS
VL: EIVLTQSPATLSLSPGERATLSCRASQSISSNLAWYQQKPGQAPRLLIYDASNRATGIPARFSGSGSGTDFTLTISSLEPEDFAVYYCQQHSNWPELTFGGGTKVEIKR
notes: as for B2

binding result [9]: binds
B17: TBRE1052 (antibody, V domains shown)
VH: PVQLIQSGAEVRKPGASVKVSCKVSGYTLSELSLHWVRQAPGKGLEWMGTFDPEDGETVYAQKFQGRVTVTEDTSTDTAYIDLSSLKSEDTAVYYCATDGPLHTSGLDYWGQGTLVTVSS
VL: EIVLTQSPATLSLSPGERATLSCRASQSISSNLAWYQQKPGQAPRLLIYDASNRATGIPARFSGSGSGTDFTLTISSLEPEDFAVYYCQQHSNWPELTFGGGTKVEIKR
notes: VH/VL only

binding result [8]: binds
B18: THNS1008 (antibody, V domains shown)
VH: QVQLQESGPGLVKPSQTLSLTCAVSGGSISSGGYPWSWIRQPPGKGLEWIGYISYSGSTDYNPSLKSRVTISLDTSSNQFSLNLSSLTAADTAVYYCARGAAFYYGMDVWGQGTTVTVSS
VL: DIQMTQSPSSLSASVGDRVTITCRASQSISTYLNWYQQKPGKAPKLLIYVASSLQSGVPSRFSGSGSGTDFTLTISGLQPEDFATYYCQQSYSTPYTFGQGTKLEIKR
notes: detected with anti-human IgG Fc; also called THINS1008

Reference: patent publication US20220204643A1 (published 2022)
